The supplement of paper PMC9112550, “Optimization of the antimicrobial peptide Bac7 by deep mutational scanning” (BMC Biology, 2022)

What follows are sequences tested on Escherichia coli TOP10 (assay: shrunken log2 fold change of peptide-encoding DNA abundance (4.5 h post-induction vs induction); higher = less antimicrobial activity (less host growth inhibition)). Conditions: time post-induction: 4.5 h; library: site-saturation at positions 5, 18, 19, 20.
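Also: peptides expressed intracellularly from a pBAD plasmid library in pooled LB shake-flask culture, induced with 0.3% L-arabinose, DNA abundance read by NGS, three biological replicates, DESeq2 with apeglm shrinkage.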

Sequence	shrunken log2 fold change
RRIRHRPPRLPRPRPRPVPSPRP	0.0513
RRIRHRPPRLPRPRPRPVQFPRP	-0.335
RRIRHRPPRLPRPRPRPVQNPRP	0.171
RRIRHRPPRLPRPRPRPVQRPRP	-0.0182
RRIRHRPPRLPRPRPRPVQYPRP	0.00489
RRIRHRPPRLPRPRPRPVRMPRP	0.246
RRIRHRPPRLPRPRPRPVRNPRP	0.0796
RRIRHRPPRLPRPRPRPVTAPRP	0.0123
RRIRHRPPRLPRPRPRPVTRPRP	-0.00217
RRIRHRPPRLPRPRPRPVTVPRP	-0.179
RRIRHRPPRLPRPRPRPVVRPRP	0.112
RRIRHRPPRLPRPRPRPVVTPRP	-0.0256
RRIRHRPPRLPRPRPRPVWAPRP	0.193
RRIRHRPPRLPRPRPRPVYKPRP	-0.665
RRIRHRPPRLPRPRPRPVYLPRP	-0.406
RRIRHRPPRLPRPRPRPVYMPRP	-0.2
RRIRHRPPRLPRPRPRPWATPRP	-0.0619
RRIRHRPPRLPRPRPRPWCRPRP	-0.352
RRIRHRPPRLPRPRPRPWCTPRP	-0.11
RRIRHRPPRLPRPRPRPWFIPRP	-0.775
RRIRHRPPRLPRPRPRPWFRPRP	-0.00674
RRIRHRPPRLPRPRPRPWGWPRP	0.284

Sequence	shrunken log2 fold change
RRIRHRPPRLPRPRPRPWISPRP	-0.0102
RRIRHRPPRLPRPRPRPWKMPRP	0.00115
RRIRHRPPRLPRPRPRPWLMPRP	-0.12
RRIRHRPPRLPRPRPRPWMEPRP	-0.00645
RRIRHRPPRLPRPRPRPWNWPRP	-0.0135
RRIRHRPPRLPRPRPRPWPSPRP	-0.00932
RRIRHRPPRLPRPRPRPWQVPRP	-0.0402
RRIRHRPPRLPRPRPRPWSLPRP	-0.121
RRIRHRPPRLPRPRPRPWTEPRP	0.0218
RRIRHRPPRLPRPRPRPWTSPRP	-0.00277
RRIRHRPPRLPRPRPRPWWLPRP	-0.0295
RRIRHRPPRLPRPRPRPWYCPRP	-0.0324
RRIRHRPPRLPRPRPRPWYTPRP	-0.17
RRIRHRPPRLPRPRPRPYCGPRP	0.113
RRIRHRPPRLPRPRPRPYCMPRP	-1.05
RRIRHRPPRLPRPRPRPYFHPRP	-0.955
RRIRHRPPRLPRPRPRPYFYPRP	-0.881
RRIRHRPPRLPRPRPRPYIKPRP	-0.287
RRIRHRPPRLPRPRPRPYILPRP	-0.576
RRIRHRPPRLPRPRPRPYIQPRP	-0.73
RRIRHRPPRLPRPRPRPYKQPRP	-0.0238
RRIRHRPPRLPRPRPRPYMGPRP	-0.201

Sequence	shrunken log2 fold change
RRIRHRPPRLPRPRPRPYNHPRP	-0.316
RRIRHRPPRLPRPRPRPYNLPRP	-0.302
RRIRHRPPRLPRPRPRPYPSPRP	-0.457
RRIRHRPPRLPRPRPRPYSPPRP	-0.0769
RRIRHRPPRLPRPRPRPYTEPRP	-0.204
RRIRHRPPRLPRPRPRPYVQPRP	-1.29
RRIRHRPPRLPRPRPRPYYHPRP	-0.339
RRIRIRPPRLPRPRPRPAACPRP	0.156
RRIRIRPPRLPRPRPRPADCPRP	0.035
RRIRIRPPRLPRPRPRPADIPRP	0.00782
RRIRIRPPRLPRPRPRPADNPRP	0.00497
RRIRIRPPRLPRPRPRPADSPRP	-0.325
RRIRIRPPRLPRPRPRPAFVPRP	-0.0212
RRIRIRPPRLPRPRPRPAFWPRP	0.15
RRIRIRPPRLPRPRPRPAHFPRP	0.0262
RRIRIRPPRLPRPRPRPAISPRP	0.0106
RRIRIRPPRLPRPRPRPALCPRP	0.0482
RRIRIRPPRLPRPRPRPALRPRP	0.00782
RRIRIRPPRLPRPRPRPAMDPRP	-0.218
RRIRIRPPRLPRPRPRPAMPPRP	0.0692
RRIRIRPPRLPRPRPRPAMWPRP	0.13
RRIRIRPPRLPRPRPRPANHPRP	-0.528

Sequence	shrunken log2 fold change
RRIRIRPPRLPRPRPRPAQGPRP	0.168
RRIRIRPPRLPRPRPRPAQNPRP	-0.0711
RRIRIRPPRLPRPRPRPARNPRP	-0.179
RRIRIRPPRLPRPRPRPASSPRP	0.093
RRIRIRPPRLPRPRPRPATRPRP	0.19
RRIRIRPPRLPRPRPRPAVFPRP	0.103
RRIRIRPPRLPRPRPRPAVIPRP	0.0759
RRIRIRPPRLPRPRPRPAVSPRP	-0.0873
RRIRIRPPRLPRPRPRPAWDPRP	-0.0871
RRIRIRPPRLPRPRPRPAWEPRP	-0.143
RRIRIRPPRLPRPRPRPCASPRP	0.02
RRIRIRPPRLPRPRPRPCCTPRP	-0.482
RRIRIRPPRLPRPRPRPCDEPRP	0.0357
RRIRIRPPRLPRPRPRPCDKPRP	-0.0161
RRIRIRPPRLPRPRPRPCDMPRP	-0.511
RRIRIRPPRLPRPRPRPCENPRP	-0.00127
RRIRIRPPRLPRPRPRPCFDPRP	-0.493
RRIRIRPPRLPRPRPRPCFKPRP	-1.04
RRIRIRPPRLPRPRPRPCGHPRP	0.00489
RRIRIRPPRLPRPRPRPCHFPRP	-0.131
RRIRIRPPRLPRPRPRPCHSPRP	0.00888
RRIRIRPPRLPRPRPRPCIFPRP	-0.402

Sequence	shrunken log2 fold change
RRIRIRPPRLPRPRPRPCIRPRP	-0.0379
RRIRIRPPRLPRPRPRPCMTPRP	-0.337
RRIRIRPPRLPRPRPRPCNAPRP	-0.0751
RRIRIRPPRLPRPRPRPCNIPRP	-0.106
RRIRIRPPRLPRPRPRPCNLPRP	-0.877
RRIRIRPPRLPRPRPRPCPFPRP	-1.38
RRIRIRPPRLPRPRPRPCSAPRP	-0.392
RRIRIRPPRLPRPRPRPCSHPRP	0.0454
RRIRIRPPRLPRPRPRPCSRPRP	-0.139
RRIRIRPPRLPRPRPRPCTEPRP	-0.0706
RRIRIRPPRLPRPRPRPCTFPRP	-0.212
RRIRIRPPRLPRPRPRPCTNPRP	-0.0668
RRIRIRPPRLPRPRPRPCWCPRP	-0.063
RRIRIRPPRLPRPRPRPCWTPRP	-0.281
RRIRIRPPRLPRPRPRPDANPRP	0.219
RRIRIRPPRLPRPRPRPDCTPRP	0.0385
RRIRIRPPRLPRPRPRPDCWPRP	0.103
RRIRIRPPRLPRPRPRPDDSPRP	-0.267
RRIRIRPPRLPRPRPRPDECPRP	0.0238
RRIRIRPPRLPRPRPRPDEWPRP	-0.0975
RRIRIRPPRLPRPRPRPDFAPRP	0.222
